Square brackets hold non-standard residues; d marks the D form. Primed or numbered codes have the meaning given here. Phe(4-CF3) = N[C@@H](Cc1ccc(C(F)(F)F)cc1)C(=O)O; dPro(cis-4-NH2) = N[C@H]1CN[C@@H](C(=O)O)C1; Pro(3S-OH) = O=C(O)[C@H]1NCC[C@@H]1O; hArg = N=C(N)NCCCC[C@H](N)C(=O)O; Tic = O=C(O)[C@@H]1Cc2ccccc2CN1; dTic = O=C(O)[C@H]1Cc2ccccc2CN1; Cha = N[C@@H](CC1CCCCC1)C(=O)O; aThr = C[C@H](O)[C@H](N)C(=O)O; Orn(A41) = not defined here; Orn(A56) = not defined here; Orn(Ar2) = not defined here; Orn(Ar4) = not defined here; Orn(Ar7) = not defined here; dOrn = NCCC[C@@H](N)C(=O)O; hSer = N[C@@H](CCO)C(=O)O; Orn = NCCC[C@H](N)C(=O)O; dPip′ = not defined here; A56 = not defined here; Ar7 = not defined here; Tiq = not defined here
B1: cyclo(-Cha-^DArg-Arg-Trp-^DPro-Thr-) (peptide)
peptide: cyclo([Cha][dR]RW[dP]T)
SMILES: C[C@@H](O)[C@@H]1NC(=O)[C@H]2CCCN2C(=O)[C@H](Cc2c[nH]c3ccccc23)NC(=O)[C@H](CCCNC(=N)N)NC(=O)[C@@H](CCCNC(=N)N)NC(=O)[C@H](CC2CCCCC2)NC1=O
B2: cyclo(-Ile-^DOrn-Arg-Trp-^DPro-Thr-) (peptide)
peptide: cyclo(I[dOrn]RW[dP]T)
SMILES: CC[C@H](C)[C@@H]1NC(=O)[C@H]([C@@H](C)O)NC(=O)[C@H]2CCCN2C(=O)[C@H](Cc2c[nH]c3ccccc23)NC(=O)[C@H](CCCNC(=N)N)NC(=O)[C@@H](CCCN)NC1=O
B3: cyclo(-Ile-^DArg-Orn-Trp-^DPro-Thr-) (peptide)
peptide: cyclo(I[dR][Orn]W[dP]T)
SMILES: CC[C@H](C)[C@@H]1NC(=O)[C@H]([C@@H](C)O)NC(=O)[C@H]2CCCN2C(=O)[C@H](Cc2c[nH]c3ccccc23)NC(=O)[C@H](CCCN)NC(=O)[C@@H](CCCNC(=N)N)NC1=O
B4: cyclo(-Ile-^DArg-hArg-Trp-^DPro-Thr-) (peptide)
peptide: cyclo(I[dR][hArg]W[dP]T)
SMILES: CC[C@H](C)[C@@H]1NC(=O)[C@H]([C@@H](C)O)NC(=O)[C@H]2CCCN2C(=O)[C@H](Cc2c[nH]c3ccccc23)NC(=O)[C@H](CCCCNC(=N)N)NC(=O)[C@@H](CCCNC(=N)N)NC1=O
B5: cyclo(-Ile-^DArg-Arg-Trp-^DTic-Thr-) (peptide)
peptide: cyclo(I[dR]RW[dTic]T)
SMILES: CC[C@H](C)[C@@H]1NC(=O)[C@H]([C@@H](C)O)NC(=O)[C@H]2Cc3ccccc3CN2C(=O)[C@H](Cc2c[nH]c3ccccc23)NC(=O)[C@H](CCCNC(=N)N)NC(=O)[C@@H](CCCNC(=N)N)NC1=O
B6: cyclo(-Ile-^DThr-Arg-Trp-^DPro-Thr-) (peptide)
peptide: cyclo(I[dT]RW[dP]T)
SMILES: CC[C@H](C)[C@@H]1NC(=O)[C@H]([C@@H](C)O)NC(=O)[C@H]2CCCN2C(=O)[C@H](Cc2c[nH]c3ccccc23)NC(=O)[C@H](CCCNC(=N)N)NC(=O)[C@@H]([C@H](C)O)NC1=O
B7: cyclo(-Ile-^DArg-Arg-Phe(4CF3)-^DPro-Thr-) (peptide)
peptide: cyclo(I[dR]R[Phe(4-CF3)][dP]T)
SMILES: CC[C@H](C)[C@@H]1NC(=O)[C@H]([C@@H](C)O)NC(=O)[C@H]2CCCN2C(=O)[C@H](Cc2ccc(C(F)(F)F)cc2)NC(=O)[C@H](CCCNC(=N)N)NC(=O)[C@@H](CCCNC(=N)N)NC1=O
B8: cyclo(-Trp-^DPhe-Trp-Orn(A56)-^DPip-Pro((3S)OH)-) (peptide)
peptide: cyclo(W[dF]W[Orn](A56)[dPip′][Pro(3S-OH)])
modifications: reading uncertain; also: printed as cyclo(-Trp-^DPhe-Trp-Orn(A56)-^DPip-Pro((3S)OH)-)
B9: cyclo(-Orn(Ar2)-^DPhe-Trp-Arg-^DPro((4R)NH2)-Tic-) (peptide)
peptide: cyclo([Orn(Ar2)][dF]WR[dPro(cis-4-NH2)][Tic])
modifications: reading uncertain; also: printed as cyclo(-Orn(Ar2)-^DPhe-Trp-Arg-^DPro((4R)NH2)-Tic-)
B10: cyclo(-Orn(A56)-^DPhe-Trp-Arg-^DPro((4R)NH2)-Tic-) (peptide)
peptide: cyclo([Orn(A56)][dF]WR[dPro(cis-4-NH2)][Tic])
modifications: reading uncertain; also: printed as cyclo(-Orn(A56)-^DPhe-Trp-Arg-^DPro((4R)NH2)-Tic-)
B11: cyclo(-Trp-^DPhe-Trp-Orn(Ar7)-^DPro((4R)NH2)-Tic-) (peptide)
peptide: cyclo(W[dF]W[Orn](Ar7)[dPro(cis-4-NH2)][Tic])
modifications: reading uncertain; also: printed as cyclo(-Trp-^DPhe-Trp-Orn(Ar7)-^DPro((4R)NH2)-Tic-)
B12: cyclo(-Trp-^DPhe-Trp-Orn(A56)-^DPro((4R)NH2)-Tiq-) (peptide)
peptide: cyclo(W[dF]W[Orn](A56)[dPro(cis-4-NH2)][Tiq])
modifications: reading uncertain; also: printed as cyclo(-Trp-^DPhe-Trp-Orn(A56)-^DPro((4R)NH2)-Tiq-)
B13: cyclo(-Trp-^DPhe-Trp-Orn(A56)-^DPro((4R)NH2)-Tic-) (peptide)
peptide: cyclo(W[dF]W[Orn](A56)[dPro(cis-4-NH2)][Tic])
modifications: reading uncertain; also: printed as cyclo(-Trp-^DPhe-Trp-Orn(A56)-^DPro((4R)NH2)-Tic-)
B14: cyclo(-Ile-^DArg-Arg-Trp-^DPro-hSer-) (peptide)
peptide: cyclo(I[dR]RW[dP][hSer])
SMILES: CC[C@H](C)[C@@H]1NC(=O)[C@H](CCO)NC(=O)[C@H]2CCCN2C(=O)[C@H](Cc2c[nH]c3ccccc23)NC(=O)[C@H](CCCNC(=N)N)NC(=O)[C@@H](CCCNC(=N)N)NC1=O
B15: cyclo(-Ile-^DArg-Arg-Trp-^DPro-alloThr-) (peptide)
peptide: cyclo(I[dR]RW[dP][aThr])
SMILES: CC[C@H](C)[C@@H]1NC(=O)[C@H]([C@H](C)O)NC(=O)[C@H]2CCCN2C(=O)[C@H](Cc2c[nH]c3ccccc23)NC(=O)[C@H](CCCNC(=N)N)NC(=O)[C@@H](CCCNC(=N)N)NC1=O

target: chemokine receptor CXCR7 (UniProt P25106 1-362, limits assumed); experiment: cell-based or functional assay
Sequence (P25106 whole entry): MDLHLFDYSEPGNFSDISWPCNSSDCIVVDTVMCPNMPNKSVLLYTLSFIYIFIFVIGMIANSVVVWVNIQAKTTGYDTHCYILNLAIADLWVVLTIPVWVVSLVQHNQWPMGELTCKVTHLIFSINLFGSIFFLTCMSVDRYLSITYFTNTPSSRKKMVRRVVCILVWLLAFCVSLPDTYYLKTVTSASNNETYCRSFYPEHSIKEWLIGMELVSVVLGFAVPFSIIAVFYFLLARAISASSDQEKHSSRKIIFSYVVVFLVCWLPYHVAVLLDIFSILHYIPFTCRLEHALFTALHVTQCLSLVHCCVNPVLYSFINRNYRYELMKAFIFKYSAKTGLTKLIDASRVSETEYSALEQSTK

**Q.** Which “β-Arrestin EC50” value does the source give for B1 here?
**A.** 37.7 nM

**Q.** B2 was tested. Which “β-Arrestin EC50” value did it give?
**A.** 23.3 nM

**Q.** For cyclo(I[dR][Orn(A41)]W[dP]T) (reading uncertain; also: printed as cyclo(-Ile-^DArg-Orn(A41)-Trp-^DPro-Thr-)) [cyclo(-Ile-^DArg-Orn(A41)-Trp-^DPro-Thr-)], which “β-Arrestin EC50” value is on record?
**A.** 518 nM

**Q.** Which “β-Arrestin EC50” value does the source give for B3 here?
**A.** 816 nM

**Q.** How did the “β-Arrestin EC50” value turn out when B4 was run?
**A.** 11 nM

**Q.** How did the “β-Arrestin EC50” value turn out when B5 was run?
**A.** 14.2 nM

**Q.** cyclo(I[dR][Orn(Ar2)]W[dP]T) (reading uncertain; also: printed as cyclo(-Ile-^DArg-Orn(Ar2)-Trp-^DPro-Thr-)) [cyclo(-Ile-^DArg-Orn(Ar2)-Trp-^DPro-Thr-)] was tested. Which “β-Arrestin EC50” value did it give?
**A.** 453 nM

**Q.** How did the “β-Arrestin EC50” value turn out when cyclo(I[dR][Orn(Ar7)]W[dP]T) (reading uncertain; also: printed as cyclo(-Ile-^DArg-Orn(Ar7)-Trp-^DPro-Thr-)) [cyclo(-Ile-^DArg-Orn(Ar7)-Trp-^DPro-Thr-)] was run?
**A.** 336 nM

**Q.** cyclo(I[dR][Orn(Ar4)]W[dP]T) (reading uncertain; also: printed as cyclo(-Ile-^DArg-Orn(Ar4)-Trp-^DPro-Thr-)) [cyclo(-Ile-^DArg-Orn(Ar4)-Trp-^DPro-Thr-)] was tested. Which “β-Arrestin EC50” value did it give?
**A.** 4.6 nM

**Q.** For B6, which “β-Arrestin EC50” value is on record?
**A.** 53.2 nM

**Q.** cyclo(I[dR][Orn(A56)]W[dP]T) (reading uncertain; also: printed as cyclo(-Ile-^DArg-Orn(A56)-Trp-^DPro-Thr-)) [cyclo(-Ile-^DArg-Orn(A56)-Trp-^DPro-Thr-)] was tested. Which “β-Arrestin EC50” value did it give?
**A.** 3.2 nM

**Q.** With B7 as the binder, how does the “β-Arrestin EC50” value read?
**A.** 4.5 nM

**Q.** With B8 as the binder, how does the “β-Arrestin EC50” value read?
**A.** 14 nM

**Q.** Which “β-Arrestin EC50” value does the source give for cyclo([Ala(1Pyraz)][dF]WR[dPro(cis-4-NH2)][Tic]) [cyclo(-Ala(1Pyraz)-^DPhe-Trp-Arg-^DPro((4R)NH2)-Tic-)] here?
**A.** 29.9 nM

**Q.** Which “β-Arrestin EC50” value does the source give for cyclo([Ala(Tet)][dF]WR[dPro(cis-4-NH2)][Tic]) [cyclo(-Ala(Tet)-^DPhe-Trp-Arg-^DPro((4R)NH2)-Tic-)] here?
**A.** 28.1 nM

**Q.** B9 was tested. Which “β-Arrestin EC50” value did it give?
**A.** 209 nM

**Q.** For B10, which “β-Arrestin EC50” value is on record?
**A.** 181 nM

**Q.** With B11 as the binder, how does the “β-Arrestin EC50” value read?
**A.** 145 nM

**Q.** How did the “β-Arrestin EC50” value turn out when B12 was run?
**A.** 46.9 nM

**Q.** B13 was tested. Which “β-Arrestin EC50” value did it give?
**A.** 33.4 nM

**Q.** Which “β-Arrestin EC50” value does the source give for B14 here?
**A.** 347 nM

**Q.** How did the “β-Arrestin EC50” value turn out when B15 was run?
**A.** 292 nM

From patent publication US20130225506A1 (POLYPHOR, published 2013)
